Experimental data taken from US9062100B2, “Anti-human TROP-2 antibody having anti-tumor activity in vivo” (LIVTECH, INC., dated 2015).
Where no end group is shown, it is not given here.

Legend:
human TROP-2 (hTROP-2) [1] = target: T1, human TROP-2 (hTROP-2) (human); assay: FACS on PK-59 cells
T1 chain: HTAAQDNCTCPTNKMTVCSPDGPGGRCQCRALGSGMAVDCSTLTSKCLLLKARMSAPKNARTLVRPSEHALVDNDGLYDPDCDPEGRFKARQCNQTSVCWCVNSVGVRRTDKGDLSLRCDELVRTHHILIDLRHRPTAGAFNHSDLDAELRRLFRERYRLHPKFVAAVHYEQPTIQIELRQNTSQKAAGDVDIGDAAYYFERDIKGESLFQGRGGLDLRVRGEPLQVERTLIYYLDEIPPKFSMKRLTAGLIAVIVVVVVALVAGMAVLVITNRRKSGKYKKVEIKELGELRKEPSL

human TROP-2 (hTROP-2) [2] = target: T1, human TROP-2 (hTROP-2); assay: FACS on BxPC-3 cells
Table 7 peptide No. 1 = target: T2, Table 7 peptide No. 1 (human); assay: PEPSCAN CLIPS peptide ELISA
T2 peptide: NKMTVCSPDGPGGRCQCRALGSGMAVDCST

Table 7 peptide No. 2 = target: T3, Table 7 peptide No. 2 (human); assay: PEPSCAN CLIPS peptide ELISA
T3 peptide: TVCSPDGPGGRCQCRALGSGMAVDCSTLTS

Table 7 peptide No. 3 = target: T4, Table 7 peptide No. 3 (human, not fully specified); assay: PEPSCAN CLIPS peptide ELISA
T4 peptide: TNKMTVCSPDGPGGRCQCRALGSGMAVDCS

Table 7 peptide No. 4 = target: T5, Table 7 peptide No. 4 (human, not fully specified); assay: PEPSCAN CLIPS peptide ELISA
T5 peptide: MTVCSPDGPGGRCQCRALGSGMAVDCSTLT

Table 7 peptide No. 6 = target: T6, Table 7 peptide No. 6 (human, not fully specified); assay: PEPSCAN CLIPS peptide ELISA
T6 peptide: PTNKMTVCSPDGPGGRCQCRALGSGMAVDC

Table 7 peptide No. 7 = target: T7, Table 7 peptide No. 7 (human, not fully specified); assay: PEPSCAN CLIPS peptide ELISA
T7 peptide: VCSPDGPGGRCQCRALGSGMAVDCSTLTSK

Table 7 peptide No. 8 = target: T8, Table 7 peptide No. 8 (human, not fully specified); assay: PEPSCAN CLIPS peptide ELISA
T8 peptide: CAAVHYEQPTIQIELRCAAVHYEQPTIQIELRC

Table 7 peptide No. 9 = target: T9, Table 7 peptide No. 9 (human, not fully specified); assay: PEPSCAN CLIPS peptide ELISA
T9 peptide: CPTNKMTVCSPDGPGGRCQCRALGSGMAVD

Table 7 peptide No. 10 = target: T10, Table 7 peptide No. 10 (human); assay: PEPSCAN CLIPS peptide ELISA
T10 peptide: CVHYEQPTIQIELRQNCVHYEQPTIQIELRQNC

Table 7 peptide No. 11 = target: T11, Table 7 peptide No. 11 (human); assay: PEPSCAN CLIPS peptide ELISA
T11 peptide: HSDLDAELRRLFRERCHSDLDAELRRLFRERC

Table 7 peptide No. 12 = target: T12, Table 7 peptide No. 12 (human); assay: PEPSCAN CLIPS peptide ELISA
T12 peptide: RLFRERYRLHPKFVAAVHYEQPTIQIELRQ

Table 7 peptide No. 13 = target: T13, Table 7 peptide No. 13 (human); assay: PEPSCAN CLIPS peptide ELISA
T13 peptide: AVHYEQPTIQIELRQ

Table 7 peptide No. 14 = target: T14, Table 7 peptide No. 14 (human); assay: PEPSCAN CLIPS peptide ELISA
T14 peptide: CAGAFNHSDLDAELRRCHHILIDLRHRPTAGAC

Table 7 peptide No. 15 = target: T15, Table 7 peptide No. 15 (human); assay: PEPSCAN CLIPS peptide ELISA
T15 peptide: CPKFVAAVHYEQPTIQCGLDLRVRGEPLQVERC

Table 7 peptide No. 16 = target: T16, Table 7 peptide No. 16 (human); assay: PEPSCAN CLIPS peptide ELISA
T16 peptide: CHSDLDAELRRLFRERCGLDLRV

Table 7 peptide No. 17 = target: T17, Table 7 peptide No. 17 (human); assay: PEPSCAN CLIPS peptide ELISA
T17 peptide: FQGRGGLDLRVRGEP

Table 7 peptide No. 18 = target: T18, Table 7 peptide No. 18 (human); assay: PEPSCAN CLIPS peptide ELISA
T18 peptide: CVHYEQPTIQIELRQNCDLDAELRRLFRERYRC

Table 7 peptide No. 19 = target: T19, Table 7 peptide No. 19 (human); assay: PEPSCAN CLIPS peptide ELISA
T19 peptide: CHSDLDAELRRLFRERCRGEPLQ

Table 7 peptide No. 20 = target: T20, Table 7 peptide No. 20 (human); assay: PEPSCAN CLIPS peptide ELISA
T20 peptide: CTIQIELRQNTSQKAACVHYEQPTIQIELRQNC

Table 7 peptide No. 21 = target: T21, Table 7 peptide No. 21 (human); assay: PEPSCAN CLIPS peptide ELISA
T21 peptide: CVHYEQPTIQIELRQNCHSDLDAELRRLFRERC

Table 7 peptide No. 22 = target: T22, Table 7 peptide No. 22 (human); assay: PEPSCAN CLIPS peptide ELISA
T22 peptide: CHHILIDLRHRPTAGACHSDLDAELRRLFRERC

Table 7 peptide No. 23 = target: T23, Table 7 peptide No. 23 (human, not fully specified); assay: PEPSCAN CLIPS peptide ELISA
T23 peptide: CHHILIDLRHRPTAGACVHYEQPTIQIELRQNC

Table 7 peptide No. 24 = target: T24, Table 7 peptide No. 24 (human, not fully specified); assay: PEPSCAN CLIPS peptide ELISA
T24 peptide: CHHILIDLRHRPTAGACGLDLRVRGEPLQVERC

Table 7 peptide No. 25 = target: T25, Table 7 peptide No. 25 (human, not fully specified); assay: PEPSCAN CLIPS peptide ELISA
T25 peptide: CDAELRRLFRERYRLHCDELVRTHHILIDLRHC

Table 7 peptide No. 26 = target: T26, Table 7 peptide No. 26 (human, not fully specified; cysteine pairing not given here); assay: PEPSCAN CLIPS peptide ELISA
T26 peptide: CVHYEQPTIQIELRQNC

Table 7 peptide No. 27 = target: T27, Table 7 peptide No. 27 (human, not fully specified); assay: PEPSCAN CLIPS peptide ELISA
T27 peptide: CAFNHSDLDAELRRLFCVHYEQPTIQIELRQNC

Table 7 peptide No. 28 = target: T28, Table 7 peptide No. 28 (human, not fully specified); assay: PEPSCAN CLIPS peptide ELISA
T28 peptide: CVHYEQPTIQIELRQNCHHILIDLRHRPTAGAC

Table 7 peptide No. 29 = target: T29, Table 7 peptide No. 29 (human, not fully specified); assay: PEPSCAN CLIPS peptide ELISA
T29 peptide: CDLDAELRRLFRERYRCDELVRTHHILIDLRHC

Table 7 peptide No. 30 = target: T30, Table 7 peptide No. 30 (human, not fully specified); assay: PEPSCAN CLIPS peptide ELISA
T30 peptide: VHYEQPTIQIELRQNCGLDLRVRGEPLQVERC

Table 7 peptide No. 31 = target: T31, Table 7 peptide No. 31 (human, not fully specified); assay: PEPSCAN CLIPS peptide ELISA
T31 peptide: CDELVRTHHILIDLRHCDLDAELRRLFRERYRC

Table 7 peptide No. 32 = target: T32, Table 7 peptide No. 32 (human, not fully specified); assay: PEPSCAN CLIPS peptide ELISA
T32 peptide: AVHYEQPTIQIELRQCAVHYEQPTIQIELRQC

Table 7 peptide No. 33 = target: T33, Table 7 peptide No. 33 (human, not fully specified); assay: PEPSCAN CLIPS peptide ELISA
T33 peptide: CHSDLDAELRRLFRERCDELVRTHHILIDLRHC

[3] = target: T34, recombinant protein of the extracellular region of hTROP-2 (human); assay: ELISA of free antibody after equilibration with antigen in solution
T34 sequence: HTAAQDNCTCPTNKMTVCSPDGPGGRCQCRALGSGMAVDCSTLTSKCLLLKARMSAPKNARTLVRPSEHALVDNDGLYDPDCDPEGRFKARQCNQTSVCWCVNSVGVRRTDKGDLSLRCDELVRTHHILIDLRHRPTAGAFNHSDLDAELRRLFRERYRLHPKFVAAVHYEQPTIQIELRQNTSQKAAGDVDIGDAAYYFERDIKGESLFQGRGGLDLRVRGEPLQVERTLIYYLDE

B1: anti-hTROP-2 monoclonal antibody K5-70 (antibody, V domains shown)
VH: QVQLQQPGAELVRPGASVKLSCKASGYTFTIYWINWVKQRPGQGLEWIGNIYPSDSYTNYNQKFKDKATLTVDKSSSTAYMQLSSPTSEDSAVYYCTRTSMADYWGQGTTLTVSS
VL: DILLTQSPAILSVSPGERVSFSCRASQSIGTSIHWYQQRTNGSPRLLIKYASESISGIPSRFSGSGSGTDFTLSINSVESEDIADYYCQQSNSWPFTFGSGTKLEIK
mean fluorescence intensity, times that with PE-labeled anti-mouse IgG only (human TROP-2 (hTROP-2) [1]): 44 times
mean fluorescence intensity, times that with PE-labeled anti-mouse IgG only (human TROP-2 (hTROP-2) [2]): 45 times
binding of K5-70 (Table 7 peptide No. 1): 2740
binding of K5-70 (Table 7 peptide No. 2): 2600
binding of K5-70 (Table 7 peptide No. 3): 2560
binding of K5-70 (Table 7 peptide No. 4): 2400
binding of K5-70 (Table 7 peptide No. 6): 1390
binding of K5-70 (Table 7 peptide No. 7): 932
binding of K5-70 (Table 7 peptide No. 8): 876
binding of K5-70 (Table 7 peptide No. 9): 839
binding of K5-70 (Table 7 peptide No. 10): 825
binding of K5-70 (Table 7 peptide No. 11): 725
binding of K5-70 (Table 7 peptide No. 12): 687
binding of K5-70 (Table 7 peptide No. 13): 642
binding of K5-70 (Table 7 peptide No. 14): 624
binding of K5-70 (Table 7 peptide No. 15): 579
binding of K5-70 (Table 7 peptide No. 16): 538
binding of K5-70 (Table 7 peptide No. 17): 538
binding of K5-70 (Table 7 peptide No. 18): 524
binding of K5-70 (Table 7 peptide No. 19): 519
binding of K5-70 (Table 7 peptide No. 20): 513
binding of K5-70 (Table 7 peptide No. 21): 511
binding of K5-70 (Table 7 peptide No. 22): 489
binding of K5-70 (Table 7 peptide No. 23): 489
binding of K5-70 (Table 7 peptide No. 24): 488
binding of K5-70 (Table 7 peptide No. 25): 483
binding of K5-70 (Table 7 peptide No. 26): 483
binding of K5-70 (Table 7 peptide No. 27): 478
binding of K5-70 (Table 7 peptide No. 28): 473
binding of K5-70 (Table 7 peptide No. 29): 472
binding of K5-70 (Table 7 peptide No. 30): 470
binding of K5-70 (Table 7 peptide No. 31): 469
binding of K5-70 (Table 7 peptide No. 32): 468
binding of K5-70 (Table 7 peptide No. 33): 466
Kd [3]: 6.8 pM
